Data taken from article PMC2583361 (Critical reviews in biochemistry and molecular biology, 2008).
Read-outs that look alike come from different tables or passages of the source.

Columns and labels:
Experiment in all cases: ITC
[1] = biological target: T1, Escherichia coli single-stranded DNA binding protein (SSB) (E. coli, UniProt P0AGE0 1-178)
[2] = biological target: T1, Escherichia coli single-stranded DNA …; remark: listed apart in the source
[3] = biological target: T1, Escherichia coli single-stranded DNA …; remark: listed apart in the source
[4] = biological target: T1, Escherichia coli single-stranded DNA …; remark: listed apart in the source

T1 sequence (P0AGE0 whole entry): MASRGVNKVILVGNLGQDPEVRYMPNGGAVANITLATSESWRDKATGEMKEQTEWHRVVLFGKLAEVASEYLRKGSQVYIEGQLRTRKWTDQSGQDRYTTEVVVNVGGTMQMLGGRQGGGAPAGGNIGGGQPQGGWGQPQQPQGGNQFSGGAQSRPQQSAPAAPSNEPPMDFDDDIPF

B1: PriA DNA helicase (enzyme, E. coli, UniProt P17888 1-732, looked up)
chain: MPVAHVALPVPLPRTFDYLLPEGMTVKAGCRVRVPFGKQQERIGIVVSVSDASELPLNELKAVVEVLDSEPVFTHSVWRLLLWAADYYHHPIGDVLFHALPILLRQGRPAANAPMWYWFATEQGQAVDLNSLKRSPKQQQALAALRQGKIWRDQVATLEFNDAALQALRKKGLCDLASETPEFSDWRTNYAVSGERLRLNTEQATAVGAIHSAADTFSAWLLAGVTGSGKTEVYLSVLENVLAQGKQALVMVPEIGLTPQTIARFRERFNAPVEVLHSGLNDSERLSAWLKAKNGEAAIVIGTRSALFTPFKNLGVIVIDEEHDSSYKQQEGWRYHARDLAVYRAHSEQIPIILGSATPALETLCNVQQKKYRLLRLTRRAGNARPAIQHVLDLKGQKVQAGLAPALITRMRQHLQADNQVILFLNRRGFAPALLCHDCGWIAECPRCDHYYTLHQAQHHLRCHHCDSQRPVPRQCPSCGSTHLVPVGLGTEQLEQTLAPLFPGVPISRIDRDTTSRKGALEQQLAEVHRGGARILIGTQMLAKGHHFPDVTLVALLDVDGALFSADFRSAERFAQLYTQVAGRAGRAGKQGEVVLQTHHPEHPLLQTLLYKGYDAFAEQALAERRMMQLPPWTSHVIVRAEDHNNQHAPLFLQQLRNLILSSPLADEKLWVLGPVPALAPKRGGRWRWQILLQHPSRVRLQHIINGTLALINTIPDSRKVKWVLDVDPIEG
dH [1]: -5.1 kcal/mol
stoichiometry N [1]: 3.7
dH [2]: -6.8 kcal/mol
stoichiometry N [2]: 4.6
dH [3]: -28 kcal/mol
stoichiometry N [3]: 1.7
dH [4]: -28.7 kcal/mol
stoichiometry N [4]: 5.2
